Where a chain is given by its changes, count along the chain named. Bounds are passed on as bounds.

14 molecules from patent US20120034160A1 (AbbVie / Abbott, published 2012) can be followed below.

Sequences and labels used below:
T1: Recombinant Human IL-17 (human, UniProt Q16552 20-155, limits assumed)
T1 sequence (looked up): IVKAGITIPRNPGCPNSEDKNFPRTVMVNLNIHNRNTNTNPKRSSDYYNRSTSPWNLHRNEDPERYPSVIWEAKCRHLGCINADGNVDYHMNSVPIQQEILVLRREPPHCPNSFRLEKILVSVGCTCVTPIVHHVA

B1: DVD1288 (bispecific antibody, human IgG1, kappa)
heavy: not shown
light: DTVVTQSPAFLSVTPGEKVTITCITSTDIDVDMNWYQQKPDQPPKLLISQGNTLRPGVPSRFSSSGSGTDFTFTISSLEAEDAATYYCLQSDNLPLTFGQGTKLEIKRTVAAPEIVLTQSPDFQSVTPKEKVTITCRASQNIGSELHWYQQKPDQSPKLLIKYASHSISGVPSRFSGSGSGTDFTLTINGLEAEDAATYYCHQSDTLPHTFGQGTKVDIKRTVAAPSVFIFPPSDEQLKSGTASVVCLLNNFYPREAKVQWKVDNALQSGNSQESVTEQDSKDSTYSLSSTLTLSKADYEKHKVYACEVTHQGLSSPVTKSFNRGEC
B2: DVD1289 (bispecific antibody, human IgG1, kappa)
heavy: not shown
light: EIVLTQSPDFQSVTPKEKVTITCRASQNIGSELHWYQQKPDQSPKLLIKYASHSISGVPSRFSGSGSGTDFTLTINGLEAEDAATYYCHQSDTLPHTFGQGTKVDIKRTVAAPDTVVTQSPAFLSVTPGEKVTITCITSTDIDVDMNWYQQKPDQPPKLLISQGNTLRPGVPSRFSSSGSGTDFTFTISSLEAEDAATYYCLQSDNLPLTFGQGTKLEIKRTVAAPSVFIFPPSDEQLKSGTASVVCLLNNFYPREAKVQWKVDNALQSGNSQESVTEQDSKDSTYSLSSTLTLSKADYEKHKVYACEVTHQGLSSPVTKSFNRGEC
B3: DVD1590 (bispecific antibody, human IgG1, kappa)
heavy: not shown
light: DIQMTQSPSSLSASVGDRVTITCRASSGIISYIDWFQQKPGKAPKRLIYATFDLASGVPSRFSGSGSGTDYTLTISSLQPEDFATYYCRQVGSYPETFGQGTKLEIKRTVAAPSVFIFPPDIQMTQSPSSLSASVGDRVTITCRASGNIHNYLTWYQQTPGKAPKLLIYNAKTLADGVPSRFSGSGSGTDYTFTISSLQPEDIATYYCQHFWSIPYTFGQGTKLQITRTVAAPSVFIFPPSDEQLKSGTASVVCLLNNFYPREAKVQWKVDNALQSGNSQESVTEQDSKDSTYSLSSTLTLSKADYEKHKVYACEVTHQGLSSPVTKSFNRGEC
B4: DVD1592 (bispecific antibody, human IgG1, kappa)
heavy: not shown
light: B3 light
B5: DVD1594 (bispecific antibody, human IgG1, kappa)
heavy: not shown
light: DIQMTQSPSSLSASVGDRVTITCRASSGIISYIDWFQQKPGKAPKRLIYATFDLASGVPSRFSGSGSGTDYTLTISSLQPEDFATYYCRQVGSYPETFGQGTKLEIKRTVAAPSVFIFPPDTQVTQSPSSLSASVGDRVTITCITSTDIDVDMNWYQQKPGKPPKLLISQGNTLRPGVPSRFSSSGSGTDFTFTISSLQPEDFATYYCLQSDNLPLTFGQGTKLEIKRTVAAPSVFIFPPSDEQLKSGTASVVCLLNNFYPREAKVQWKVDNALQSGNSQESVTEQDSKDSTYSLSSTLTLSKADYEKHKVYACEVTHQGLSSPVTKSFNRGEC
B6: DVD1287 (bispecific antibody, human IgG1, kappa)
heavy: not shown
light: EIVLTQSPDFQSVTPKEKVTITCRASQNIGSELHWYQQKPDQSPKLLIKYASHSISGVPSRFSGSGSGTDFTLTINGLEAEDAATYYCHQSDTLPHTFGQGTKVDIKRTVAAPDTQVTQSPSSLSASVGDRVTITCITSTDIDVDMNWYQQKPGKPPKLLISQGNTLRPGVPSRFSSSGSGTDFTFTISSLQPEDFATYYCLQSDNLPLTFGQGTKLEIKRTVAAPSVFIFPPSDEQLKSGTASVVCLLNNFYPREAKVQWKVDNALQSGNSQESVTEQDSKDSTYSLSSTLTLSKADYEKHKVYACEVTHQGLSSPVTKSFNRGEC
B7: DVD1291 (bispecific antibody, human IgG1, kappa)
heavy: not shown
light: B6 light with D114E, Q116T
B8: DVD1589 (bispecific antibody, human IgG1, kappa)
heavy: not shown
light: DIQMTQSPSSLSASVGDRVTITCRASGNIHNYLTWYQQTPGKAPKLLIYNAKTLADGVPSRFSGSGSGTDYTFTISSLQPEDIATYYCQHFWSIPYTFGQGTKLQITRTVAAPSVFIFPPDIQMTQSPSSLSASVGDRVTITCRASSGIISYIDWFQQKPGKAPKRLIYATFDLASGVPSRFSGSGSGTDYTLTISSLQPEDFATYYCRQVGSYPETFGQGTKLEIKRTVAAPSVFIFPPSDEQLKSGTASVVCLLNNFYPREAKVQWKVDNALQSGNSQESVTEQDSKDSTYSLSSTLTLSKADYEKHKVYACEVTHQGLSSPVTKSFNRGEC
B9: DVD1591 (bispecific antibody, human IgG1, kappa)
heavy: not shown
light: B8 light
B10: DVD1595 (bispecific antibody, human IgG1, kappa)
heavy: not shown
light: DTVVTQSPAFLSVTPGEKVTITCITSTDIDVDMNWYQQKPDQPPKLLISQGNTLRPGVPSRFSSSGSGTDFTFTISSLEAEDAATYYCLQSDNLPLTFGQGTKLEIKRTVAAPSVFIFPPDIQMTQSPSSLSASVGDRVTITCRASSGIISYIDWFQQKPGKAPKRLIYATFDLASGVPSRFSGSGSGTDYTLTISSLQPEDFATYYCRQVGSYPETFGQGTKLEIKRTVAAPSVFIFPPSDEQLKSGTASVVCLLNNFYPREAKVQWKVDNALQSGNSQESVTEQDSKDSTYSLSSTLTLSKADYEKHKVYACEVTHQGLSSPVTKSFNRGEC
B11: DVD1593 (bispecific antibody, human IgG1, kappa)
heavy: not shown
light: DTQVTQSPSSLSASVGDRVTITCITSTDIDVDMNWYQQKPGKPPKLLISQGNTLRPGVPSRFSSSGSGTDFTFTISSLQPEDFATYYCLQSDNLPLTFGQGTKLEIKRTVAAPSVFIFPPDIQMTQSPSSLSASVGDRVTITCRASSGIISYIDWFQQKPGKAPKRLIYATFDLASGVPSRFSGSGSGTDYTLTISSLQPEDFATYYCRQVGSYPETFGQGTKLEIKRTVAAPSVFIFPPSDEQLKSGTASVVCLLNNFYPREAKVQWKVDNALQSGNSQESVTEQDSKDSTYSLSSTLTLSKADYEKHKVYACEVTHQGLSSPVTKSFNRGEC
B12: DVD1286 (bispecific antibody, human IgG1, kappa)
heavy: not shown
light: DTQVTQSPSSLSASVGDRVTITCITSTDIDVDMNWYQQKPGKPPKLLISQGNTLRPGVPSRFSSSGSGTDFTFTISSLQPEDFATYYCLQSDNLPLTFGQGTKLEIKRTVAAPEIVLTQSPDFQSVTPKEKVTITCRASQNIGSELHWYQQKPDQSPKLLIKYASHSISGVPSRFSGSGSGTDFTLTINGLEAEDAATYYCHQSDTLPHTFGQGTKVDIKRTVAAPSVFIFPPSDEQLKSGTASVVCLLNNFYPREAKVQWKVDNALQSGNSQESVTEQDSKDSTYSLSSTLTLSKADYEKHKVYACEVTHQGLSSPVTKSFNRGEC
B13: DVD1290 (bispecific antibody, human IgG1, kappa)
heavy: not shown
light: B12 light with D1E, Q3T
B14: DVD1596 (bispecific antibody, human IgG1, kappa)
heavy: not shown
light: DIQMTQSPSSLSASVGDRVTITCRASSGIISYIDWFQQKPGKAPKRLIYATFDLASGVPSRFSGSGSGTDYTLTISSLQPEDFATYYCRQVGSYPETFGQGTKLEIKRTVAAPSVFIFPPDTVVTQSPAFLSVTPGEKVTITCITSTDIDVDMNWYQQKPDQPPKLLISQGNTLRPGVPSRFSSSGSGTDFTFTISSLEAEDAATYYCLQSDNLPLTFGQGTKLEIKRTVAAPSVFIFPPSDEQLKSGTASVVCLLNNFYPREAKVQWKVDNALQSGNSQESVTEQDSKDSTYSLSSTLTLSKADYEKHKVYACEVTHQGLSSPVTKSFNRGEC

The target of the first assay is Recombinant Human IL-1β (human, UniProt P01584 117-269). The assay can be described thus: cell-based or functional assay.
Turning to B1, the “N-Terminal VD IL-1β Neutralization Assay EC50” value came to 0.212 nM.
For B2, the “C-Terminal VD IL-1β Neutralization Assay EC50” value was 18.8 nM.
As for B3, the “C-Terminal VD IL-1β Neutralization Assay EC50” value is 1.6 nM.
As for B4, the “C-Terminal VD IL-1β Neutralization Assay EC50” value is 0.109 nM.
Still for that read-out and setting: the same measure for B5: 9.1 nM; for B6: > 50 nM; for B7: > 100 nM.
As for B8, the “N-Terminal VD IL-1β Neutralization Assay EC50” value worked out at 0.0068 nM.
On the same count and under the same terms, the same measure for B9: 0.0023 nM; for B10: 0.204 nM.
The same measure, in the same setting: for B11 the value was 0.184 nM; for B12, 0.165 nM.
For the molecule B13, the “N-Terminal VD IL-1β Neutralization Assay EC50” value is 0.252 nM.
Take B14: the “C-Terminal VD IL-1β Neutralization Assay EC50” value is 3.44 nM.

Another assay concerns the target T1, Recombinant Human IL-17. Briefly: cell-based or functional assay.
For B1, the “C-terminal VD IL-17 Neutralization Assay EC50” value was 0.111 nM.
Consider B2, for which the “N-terminal VD IL-17 Neutralization Assay EC50” value was found to be 0.096 nM.
On the same count and under the same terms, the same measure for B3: 0.0016 nM; for B4: 0.0117 nM; for B5: 0.0025 nM.
In the case of B6, the “N-terminal VD IL-17 Neutralization Assay EC50” value was determined as 0.0035 nM.
The same measure, in the same setting: for B7 the value was 0.0062 nM.
As for B8, the “C-terminal VD IL-17 Neutralization Assay EC50” value was determined as 0.0011 nM.
Same read-out and setting: for B9 the value was 0.0393 nM; for B10, 0.0019 nM.
The same measure, in the same setting: the same measure for B11: 0.001 nM; for B12: 0.259 nM.
Same read-out and setting: the same measure for B13: 0.0181 nM.
In the case of B14, the “N-terminal VD IL-17 Neutralization Assay EC50” value worked out at 0.0007 nM.
